Results taken from paper PMC8713425 (Journal of medicinal chemistry, 2021).

Molecular target: LGR4 (leucine-rich repeat containing, G protein-coupled receptor 4) (UniProt Q9BXB1 25-951)
Assay: whole-cell binding assay

Kd | Binder
3.2 nM | R4Fu-WT (wild-type RSPO4 furin domain fused to human IgG1 Fc) (Fc fusion) VGTGLGGNCTGCIICSEENGCSTCQQRLFLFIRREGIRQYGKCLHDCPPGYFGIRGQEVNRCKKCGATCESCFSQDFCIRCKRQFYLYKGKCLPTCPPSGGGGSGGGGSGGGGS
6.2 nM | R4Fu-Q65R (RSPO4 furin domain Q65R fused to human IgG1 Fc) (Fc fusion) VGTGLGGNCTGCIICSEENGCSTCQQRLFLFIRREGIRRYGKCLHDCPPGYFGIRGQEVNRCKKCGATCESCFSQDFCIRCKRQFYLYKGKCLPTCPPSGGGGSGGGGSGGGGS
